Results from patent US20240132548A1 (Janssen / Centocor, published 2024).

Assays:
Assay in all cases: BLI (Octet), biotinylated mAb on streptavidin sensors, culture supernatant
[1] = biological target: T1, RSV180910 (RSV FB signal peptide, C-tag) (respiratory syncytial virus, subgroup B …, UniProt O36634 26-109; P13843 137-540)
T1 construct: Same mature protein as RSV180916, expressed with the RSV B signal peptide; measured in culture supernatant, furin co-transfected
T1 chain 1: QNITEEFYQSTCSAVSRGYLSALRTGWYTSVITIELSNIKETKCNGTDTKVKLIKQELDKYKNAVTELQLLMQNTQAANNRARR
T1 chain 2: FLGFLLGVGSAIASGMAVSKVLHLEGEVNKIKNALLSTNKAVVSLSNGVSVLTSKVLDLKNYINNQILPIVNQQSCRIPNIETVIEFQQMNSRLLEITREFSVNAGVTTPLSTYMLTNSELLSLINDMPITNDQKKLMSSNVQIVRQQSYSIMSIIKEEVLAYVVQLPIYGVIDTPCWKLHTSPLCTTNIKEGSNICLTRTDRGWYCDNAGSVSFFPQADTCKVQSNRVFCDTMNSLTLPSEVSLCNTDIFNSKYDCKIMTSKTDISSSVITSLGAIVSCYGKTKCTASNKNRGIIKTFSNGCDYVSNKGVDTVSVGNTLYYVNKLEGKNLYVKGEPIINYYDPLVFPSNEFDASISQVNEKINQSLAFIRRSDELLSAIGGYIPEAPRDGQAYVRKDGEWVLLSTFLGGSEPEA
Description: (§1) Quantitative Octet (BioLayer Interferometry) was used for measuring protein concentration in the supernatants at day of harvest and after 7 or 30 days storage at 4° C. CR9501 (an antibody specifically recognizing pre-fusion RSV F protein, which comprises the variable regions of the antibodies 58C5 as described in WO2012/006596) and CR9506 (recognizing pre-fusion and post-fusion RSV F protein and comprising a heavy chain variable region comprising SEQ ID NO: 21, and a light chain variable region comprising SEQ ID NO: 22) were biotinylated by standard protocols and immobilized on Streptavidin biosensors (ForteBio, Portsmouth, UK).
(§2) Afterwards, the coated biosensors were blocked in mock cell culture supernatant. A quantitative experiment was performed as follows: temperature 30° C., shaking speed 1000 rpm, time of the assay 300 sec. The concentration of the protein was calculated using a standard curve. The standard curve was prepared for each coated antibody CR9501 and CR9506 using the pre-fusion RSV FA protein (SEQ ID NO: 19; described previously in WO17174568) diluted in mock medium. […] The data analysis was done using the ForteBio Data Analysis 10.0.1.6 software (ForteBio).

[2] = biological target: T2, RSV181180 (I152M + K226M + D486N + S215P + P101Q) (respiratory syncytial virus, subgroup B …, UniProt O36634 26-109; P13843 137-540)
T2 chain 1: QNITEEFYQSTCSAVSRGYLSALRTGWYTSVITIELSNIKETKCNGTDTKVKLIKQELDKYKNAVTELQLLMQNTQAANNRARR
T2 chain 2: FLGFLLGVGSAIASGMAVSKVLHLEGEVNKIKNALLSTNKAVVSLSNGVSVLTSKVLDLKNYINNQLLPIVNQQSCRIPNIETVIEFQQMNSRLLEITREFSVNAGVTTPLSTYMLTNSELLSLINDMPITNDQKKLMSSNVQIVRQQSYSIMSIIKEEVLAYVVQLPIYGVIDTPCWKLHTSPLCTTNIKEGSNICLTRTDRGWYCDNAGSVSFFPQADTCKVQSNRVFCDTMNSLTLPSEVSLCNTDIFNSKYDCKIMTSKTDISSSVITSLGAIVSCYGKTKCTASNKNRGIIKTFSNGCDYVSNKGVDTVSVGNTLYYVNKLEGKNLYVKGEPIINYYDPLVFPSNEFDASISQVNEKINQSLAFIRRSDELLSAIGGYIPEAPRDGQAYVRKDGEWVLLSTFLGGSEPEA
Description: as §1, §2

[3] = biological target: T3, RSV180907 (tag-free, RSV FB signal peptide) (respiratory syncytial virus, subgroup B …, UniProt O36634 26-109; P13843 137-540)
T3 construct: Same mature protein as RSV180913, expressed with the RSV B signal peptide; measured in culture supernatant, furin co-transfected
T3 chain 1: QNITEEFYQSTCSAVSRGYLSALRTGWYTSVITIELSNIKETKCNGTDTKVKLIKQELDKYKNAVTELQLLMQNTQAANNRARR
T3 chain 2: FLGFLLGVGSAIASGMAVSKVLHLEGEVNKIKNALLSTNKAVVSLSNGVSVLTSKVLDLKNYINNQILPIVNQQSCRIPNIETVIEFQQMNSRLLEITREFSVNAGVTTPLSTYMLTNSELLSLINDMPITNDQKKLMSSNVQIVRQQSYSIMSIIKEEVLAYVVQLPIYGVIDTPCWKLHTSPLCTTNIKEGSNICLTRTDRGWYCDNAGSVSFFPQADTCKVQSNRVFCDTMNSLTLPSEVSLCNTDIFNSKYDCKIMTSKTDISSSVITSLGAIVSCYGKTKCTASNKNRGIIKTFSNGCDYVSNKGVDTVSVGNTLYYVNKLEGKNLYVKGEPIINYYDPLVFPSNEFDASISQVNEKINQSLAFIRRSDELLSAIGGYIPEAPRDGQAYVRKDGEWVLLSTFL
Description: as §1, §2

[4] = biological target: T4, RSV181178 (I152M + K226M) (respiratory syncytial virus, subgroup B …, UniProt O36634 26-109; P13843 137-540)
T4 construct: Measured in crude culture supernatant, no furin co-transfection
T4 chain 1: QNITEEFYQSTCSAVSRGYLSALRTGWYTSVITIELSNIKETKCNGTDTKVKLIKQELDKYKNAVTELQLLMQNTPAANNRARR
T4 chain 2: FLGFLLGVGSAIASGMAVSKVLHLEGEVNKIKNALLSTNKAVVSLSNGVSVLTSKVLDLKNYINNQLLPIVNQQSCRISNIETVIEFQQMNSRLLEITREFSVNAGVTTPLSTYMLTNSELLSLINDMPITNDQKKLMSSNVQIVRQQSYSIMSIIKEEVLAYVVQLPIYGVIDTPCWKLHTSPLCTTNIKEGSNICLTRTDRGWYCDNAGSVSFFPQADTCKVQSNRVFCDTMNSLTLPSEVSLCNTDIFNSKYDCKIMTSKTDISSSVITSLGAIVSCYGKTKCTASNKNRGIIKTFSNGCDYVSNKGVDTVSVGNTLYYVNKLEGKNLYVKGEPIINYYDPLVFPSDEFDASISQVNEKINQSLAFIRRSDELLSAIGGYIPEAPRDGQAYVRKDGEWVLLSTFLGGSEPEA
Description: as §1, §2

Measured: binding result

B1: CR9506 (antibody, human IgG1, kappa, V domains shown)
VH: EVQLVQSGAEVKKPGSSVKVSCKASGGTFSRSLITWVRQAPGQGLEWMGEISLVFGSAKNAQKFQGRVTITADESTSTAHMEMISLKHEDTAVYYCAAHQYGSGTHNNFWDESELRFDLWGQGTLVTVSS
VL: DIVMTQSPSSLSASVGDRVTIACRASQSIGTYLNWYQQKPGKAPKLLIYAASSLQSGVPSRFSGSGSGTHFTLAISSLQAEDFATYSCQQSYTIPYTFGQGTKLEIKR
notes: Biotinylated for Octet; coated and also used HRP-labelled as detection antibody in the ELISA
binds: all assays above
